In patent publication US20130273053:

Biological target: ST-pro-factor D-His (UniProt P00746)
Sequence (P00746 21-253): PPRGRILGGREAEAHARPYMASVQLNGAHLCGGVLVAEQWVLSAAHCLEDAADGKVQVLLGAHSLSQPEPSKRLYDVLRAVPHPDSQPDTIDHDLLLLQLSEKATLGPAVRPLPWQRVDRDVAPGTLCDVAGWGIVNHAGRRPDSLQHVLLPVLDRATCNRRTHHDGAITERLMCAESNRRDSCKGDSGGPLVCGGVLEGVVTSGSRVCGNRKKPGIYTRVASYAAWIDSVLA

B1: recombinant MASP-1 (CCP1-CCP2-SP) fragment (enzyme, part only; not given: tags; R504Q status unclear)
chain, part: GNECPELQPPVHGKIEPSQAKYFFKDQVLVSCDTGYKVLKDNVEMDTFQIECLKDGTWSNKIPTCKIVDCRAPGELEHGLITFSTRNNLTTYKSEIKYSCQEPYYKMLNNNTGIYTCSAQGVWMNKVLGRSLPTCLPVCGLPKFSRKLMARIFNGRPAQKGTTPWIAMLSHLNGQPFCGGSLLGSSWIVTAAHCLHQSLDPKDPTLRDSDLLSPSDFKIILGKHWRLRSDENEQHLGVKHTTLHPKYDPNTFENDVALVELLESPVLNAFVMPICLPEGPQQEGAMVIVSGWGKQFLQRFPETLMEIEIPIVDHSTCQKAYAPLKKKVTRDMICAGEKEGGKDACSGDSGGPMVTLNRERGQWYLVGTVSWGDDCGKKDRYGVYSYIHHNKDWIQRVTGVRN
Q: With B1 as the protein, how does the “cleavage of pro-factor D substrate, Western blot” value read?
A: The value was “only full length MASP-3 (lane 2) and the MASP-1 CCP1-CCP2-SP) fragment (lane 5) cleaved ST-pro-factor D-His6”.
